Experimental data as given in PMC2117344, “A New In Vitro Strand Transfer Assay for Monitoring Bacterial Class 1 Integron Recombinase IntI1 Activity”.

Target: T1, IntI1(his)6 wild type (Pseudomonas aeruginosa Pa695 (class 1 …, UniProt Q7BP41 1-337))
T1 sequence: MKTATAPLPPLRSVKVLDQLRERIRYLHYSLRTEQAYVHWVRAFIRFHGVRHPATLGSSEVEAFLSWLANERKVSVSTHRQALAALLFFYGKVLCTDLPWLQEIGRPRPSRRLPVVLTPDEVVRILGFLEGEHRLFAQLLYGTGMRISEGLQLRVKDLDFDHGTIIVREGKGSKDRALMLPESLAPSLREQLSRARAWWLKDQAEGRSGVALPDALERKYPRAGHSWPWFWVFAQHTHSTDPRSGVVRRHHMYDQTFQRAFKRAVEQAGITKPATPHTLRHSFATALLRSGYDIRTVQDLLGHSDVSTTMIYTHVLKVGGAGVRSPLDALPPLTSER
Experiment: EMSA; 20 min at 4 C in 20 ul, 0.1 pmol DNA, 1-10 pmol IntI1, 1% agarose gel at 4 C; filter wash buffer 20 mM HEPES pH 7.5, 10 mM MnCl2, 30 mM NaCl (pre-wash 10 mM NaCl, 100 ug/ml calf thymus DNA); exact binding buffer not given
Details: protein: recombinant, tags: C-terminal His6 (pET101D-Topo), label: 5' 32P

B1: attC bottom strand (attCbs) (ssDNA)
DNA: AGTGCATCTAACGCCTGAGTTAAGCCGCGGTGCGCAGTGGCAAGCGGCGTGCGAAGCTTAGCGTAGCACGCAAGCGCCGCCACGAAGCAACGTCGGCTTGAACGAATTGTTAGACGGGCG
B1: binds (single strand).

B2: attC top strand (attCts) (ssDNA)
DNA: CGCCCGTCTAACAATTCGTTCAAGCCGACGTTGCTTCGTGGCGGCGCTTGCGTGCTACGCTAAGCTTCGCACGCCGCTTGCCACTGCGCACCGCGGCTTAACTCAGGCGTTAGATGCACT
B2: no binding (single strand).

B3: attI1ds (dsDNA)
DNA 1: ACGCCGTGGGTCGATGTTTGATGTTATGGAGCAGCAACGATGTTACGCAGCAGGGCAGTCGCCCTAAAACAAAGTTAGGTGGCTCAATGAGCATCATTGC
DNA 2: GCAATGATGCTCATTGAGCCACCTAACTTTGTTTTAGGGCGACTGCCCTGCTGCGTAACATCGTTGCTGCTCCATAACATCAAACATCGACCCACGGCGT
B3: binds (blunt).
